The target in data set [1] is T1, Thrombomodulin (TM) expressed on COS cells (human, UniProt P07204 19-575).
T1 construct: Thrombomodulin; cDNA isolated from expression libraries of HUVECs and EA.hy926 cells; Also used as the target of the functional rows on HUVECs (endogenous TM there); source: COS cells, transfected, on cells
Put plainly: cell-surface binding assay (alkaline phosphatase-conjugated anti-human Fc, OD405); COS cells transfected with TM in 48-well plates, varying concentrations of FD-Fc in PBS/10% calf serum, 30 minutes at room temperature; specific binding = TM-transfected minus empty vector; apparent affinities. The conditions noted are these: one partner purified.

Data set [2] deals with T2, soluble extracellular domain of human TM (human, UniProt P07204 19-515).
T2 construct: Thrombomodulin, human, soluble extracellular domain; also called soluble TM; source: bought: R&D Systems
T2 sequence (P07204 19-515): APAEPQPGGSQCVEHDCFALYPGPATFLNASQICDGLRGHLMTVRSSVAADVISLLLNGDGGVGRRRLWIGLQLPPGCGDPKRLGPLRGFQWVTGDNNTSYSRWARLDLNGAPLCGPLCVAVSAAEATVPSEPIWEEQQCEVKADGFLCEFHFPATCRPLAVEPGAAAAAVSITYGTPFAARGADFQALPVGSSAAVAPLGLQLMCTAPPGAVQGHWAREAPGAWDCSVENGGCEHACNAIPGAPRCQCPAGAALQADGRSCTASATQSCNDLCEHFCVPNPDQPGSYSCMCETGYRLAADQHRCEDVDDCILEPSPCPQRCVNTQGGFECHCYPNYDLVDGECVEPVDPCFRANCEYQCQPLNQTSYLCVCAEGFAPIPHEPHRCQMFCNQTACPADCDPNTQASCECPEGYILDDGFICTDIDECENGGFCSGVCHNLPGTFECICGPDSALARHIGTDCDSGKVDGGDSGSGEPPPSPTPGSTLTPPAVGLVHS
Briefly: pull-down; 100 nM His-tagged TM extracellular domain with 5 nM thrombin and 0.25, 0.5 or 1.0 uM native Ang1, Ang2 or Ang4 (control), 60 minutes on ice, 0.15 M NaCl, 20 mM Tris pH 7.5, 0.1% Triton X-100, 2 mM CaCl2, 1 mg/ml BSA; TM collected on Ni-NTA beads, western blot. The conditions noted are these: both partners purified. In general terms: Immunoblotting shows a protein as a band on a membrane.

T1 sequence (P07204 19-575): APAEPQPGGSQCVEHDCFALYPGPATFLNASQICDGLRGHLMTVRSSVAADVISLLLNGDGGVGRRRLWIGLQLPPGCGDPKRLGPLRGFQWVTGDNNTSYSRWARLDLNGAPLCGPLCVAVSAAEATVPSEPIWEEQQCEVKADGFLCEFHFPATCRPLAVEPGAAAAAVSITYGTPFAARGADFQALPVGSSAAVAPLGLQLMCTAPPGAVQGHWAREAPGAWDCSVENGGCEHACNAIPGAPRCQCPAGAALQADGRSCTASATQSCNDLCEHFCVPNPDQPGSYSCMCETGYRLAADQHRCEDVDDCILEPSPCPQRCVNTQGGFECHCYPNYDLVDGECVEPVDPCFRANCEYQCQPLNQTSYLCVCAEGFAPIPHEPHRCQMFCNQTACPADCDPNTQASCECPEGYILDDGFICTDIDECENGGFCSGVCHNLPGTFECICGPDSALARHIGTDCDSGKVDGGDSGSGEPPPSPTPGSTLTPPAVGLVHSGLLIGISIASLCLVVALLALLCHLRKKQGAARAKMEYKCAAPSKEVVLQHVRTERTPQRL

B1: Ang2-FD-Fc (Fc fusion, human, UniProt O15123-3 19-495, looked up)
chain: KEEQISFRDCAEVFKSGHTTNGIYTLTFPNSTEEIKAYCDMEAGGGGWTIIQRREDGSVDFQRTWKEYKVGFGNPSGEYWLGNEFVSQLTNQQRYVLKIHLKDWEGNEAYSLYEHFYLSSEELNYRIHLKGLTGTAGKISSISQPGNDFSTKDGDNDKCICKCSQMLTGGWWFDACGPSNLNGMYYPQRQNTNKFNGIKWYYWKGSGYSLKATTMMIRPADF
notes: Angiopoietin-2 (Ang2, ANGPT2), fibrinogen-like domain (FD); Detected with anti-human Fc
For B1, the Kd in data set [1] is ~8.3 nM.

B2: native human Ang2 (ligand, UniProt O15123-3 19-495, looked up)
chain: YNNFRKSMDSIGKKQYQVQHGSCSYTFLLPEMDNCRSSSSPYVSNAVQRDAPLEYDDSVQRLQVLENIMENNTQWLMKLENYIQDNMKKEMVEIQQNAVQNQTAVMIEIGTNLLNQTAEQTRKLTDVEAQVLNQTTRLELQLLEHSLSTNKLEKQILDQTSEINKLQDKNSFLEKKVLAMEDKHIIQLQSIKEEKDQLQVLVSKQNSIIEELEKKIVTATVNNSVLQKQQHDLMETVNNLLTMMSTSNSKDPTVAKEEQISFRDCAEVFKSGHTTNGIYTLTFPNSTEEIKAYCDMEAGGGGWTIIQRREDGSVDFQRTWKEYKVGFGNPSGEYWLGNEFVSQLTNQQRYVLKIHLKDWEGNEAYSLYEHFYLSSEELNYRIHLKGLTGTAGKISSISQPGNDFSTKDGDNDKCICKCSQMLTGGWWFDACGPSNLNGMYYPQRQNTNKFNGIKWYYWKGSGYSLKATTMMIRPADF
notes: Angiopoietin-2, human, 'native' as against the chimeric FD forms; also called Angiopoietin-2; source: bought: R&D Systems
Consider B2, for which the “percent inhibition of thrombin/TM complex formation at 1 uM Ang2” value in data set [2] is ~80%.

B3: native human Ang1 (ligand, UniProt Q15389 16-498, looked up)
chain: HIGCSNQRRSPENSGRRYNRIQHGQCAYTFILPEHDGNCRESTTDQYNTNALQRDAPHVEPDFSSQKLQHLEHVMENYTQWLQKLENYIVENMKSEMAQIQQNAVQNHTATMLEIGTSLLSQTAEQTRKLTDVETQVLNQTSRLEIQLLENSLSTYKLEKQLLQQTNEILKIHEKNSLLEHKILEMEGKHKEELDTLKEEKENLQGLVTRQTYIIQELEKQLNRATTNNSVLQKQQLELMDTVHNLVNLCTKEGVLLKGGKREEEKPFRDCADVYQAGFNKSGIYTIYINNMPEPKKVFCNMDVNGGGWTVIQHREDGSLDFQRGWKEYKMGFGNPSGEYWLGNEFIFAITSQRQYMLRIELMDWEGNRAYSQYDRFHIGNEKQNYRLYLKGHTGTAGKQSSLILHGADFSTKDADNDNCMCKCALMLTGGWWFDACGPSNLNGMFYTAGQNHGKLNGIKWHYFKGPSYSLRSTTMMIRPLDF
notes: Angiopoietin-1, human, 'native' as against the chimeric FD forms; also called Angiopoietin-1; source: bought: R&D Systems
Consider B3, for which the binding result in data set [2] is “binds”.

B4: Ang1-FD-Fc (Fc fusion, human, UniProt Q15389 277-498, looked up)
chain: REEEKPFRDCADVYQAGFNKSGIYTIYINNMPEPKKVFCNMDVNGGGWTVIQHREDGSLDFQRGWKEYKMGFGNPSGEYWLGNEFIFAITSQRQYMLRIELMDWEGNRAYSQYDRFHIGNEKQNYRLYLKGHTGTAGKQSSLILHGADFSTKDADNDNCMCKCALMLTGGWWFDACGPSNLNGMFYTAGQNHGKLNGIKWHYFKGPSYSLRSTTMMIRPLDF
notes: Used at 1 ug/ml in the screen; also called fibrinogen-like domain (FD) of Ang1 fused to a human Fc tag
With B4, the Kd in data set [1] was ~88 nM.

(Values after paper PMC5765006, “Angiopoietins bind thrombomodulin and inhibit its function as a thrombin cofactor” (Scientific Reports, 2018).)
